Measured values published in doi:10.1101/2020.01.21.914390 (bioRxiv, 2020).

Biological target: GST tagged MYB52 fusion protein (Arabidopsis thaliana, UniProt Q6R0C4 1-249)
Assay: pull-down

Chain of GST tagged MYB52 fusion protein (Q6R0C4 whole entry, the tested form may be a part): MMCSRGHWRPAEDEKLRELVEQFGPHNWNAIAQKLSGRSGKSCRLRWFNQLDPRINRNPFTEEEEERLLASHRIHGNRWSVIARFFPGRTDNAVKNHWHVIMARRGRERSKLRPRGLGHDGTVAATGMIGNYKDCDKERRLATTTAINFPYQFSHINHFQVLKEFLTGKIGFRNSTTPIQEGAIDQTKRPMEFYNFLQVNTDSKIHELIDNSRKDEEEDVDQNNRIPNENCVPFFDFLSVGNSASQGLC

- binding result: binds
B1: MBP tagged ERF4 fusion protein (ETHYLENE RESPONSIVE FACTOR4) (natural protein)
chain: not shown
